Measured values taken from publication PMC9475539 (The EMBO Journal, 2022).
Substitutions are numbered along the chain they refer to. Names and notes keep the numbering of the source.

B1: TqsA (transporter of quorum-sensing signal AI-2) from Escherichia coli (natural protein, E. coli K-12, UniProt P0AFS5 1-344, looked up)
chain: MAKPIITLNGLKIVIMLGMLVIILCGIRFAAEIIVPFILALFIAVILNPLVQHMVRWRVPRVLAVSILMTIIVMAMVLLLAYLGSALNELTRTLPQYRNSIMTPLQALEPLLQRVGIDVSVDQLAHYIDPNAAMTLLTNLLTQLSNAMSSIFLLLLTVLFMLLEVPQLPGKFQQMMARPVEGMAAIQRAIDSVSHYLVLKTAISIITGLVAWAMLAALDVRFAFVWGLLAFALNYIPNIGSVLAAIPPIAQVLVFNGFYEALLVLAGYLLINLVFGNILEPRIMGRGLGLSTLVVFLSLIFWGWLLGPVGMLLSVPLTIIVKIALEQTAGGQSIAVLLSDLNKE
B2: YdiK from Escherichia coli (natural protein, E. coli K-12, UniProt P0AFS7 1-370, looked up)
chain: MVNVRQPRDVAQILLSVLFLAIMIVACLWIVQPFILGFAWAGTVVIATWPVLLRLQKIMFGRRSLAVLVMTLLLVMVFIIPIALLVNSIVDGSGPLIKAISSGDMTLPDLAWLNTIPVIGAKLYAGWHNLLDMGGTAIMAKVRPYIGTTTTWFVGQAAHIGRFMVHCALMLLFSALLYWRGEQVAQGIRHFATRLAGVRGDAAVLLAAQAIRAVALGVVVTALVQAVLGGIGLAVSGVPYATLLTVLMILSCLVQLGPLPVLIPAIIWLYWTGDTTWGTVLLVWSGVVGTLDNVIRPMLIRMGADLPLILILSGVIGGLIAFGMIGLFIGPVLLAVSWRLFAAWVEEVPPPTDQPEEILEELGEIEKPNK
B3: YhhT from Escherichia coli (natural protein, E. coli K-12, UniProt P0AGM0 1-349, looked up)
chain: METPQPDKTGMHILLKLASLVVILAGIHAAADIIVQLLLALFFAIVLNPLVTWFIRRGVQRPVAITIVVVVMLIALTALVGVLAASFNEFISMLPKFNKELTRKLFKLQEMLPFLNLHMSPERMLQRMDSEKVVTFTTALMTGLSGAMASVLLLVMTVVFMLFEVRHVPYKMRFALNNPQIHIAGLHRALKGVSHYLALKTLLSLWTGVIVWLGLELMGVQFALMWAVLAFLLNYVPNIGAVISAVPPMIQVLLFNGVYECILVGALFLVVHMVIGNILEPRMMGHRLGMSTMVVFLSLLIWGWLLGPVGMLLSVPLTSVCKIWMETTKGGSKLAILLGPGRPKSRLPG
B4: TqsA K200L (natural protein, E. coli K-12, UniProt P0AFS5 1-344, looked up)
chain: B1 chain with K200L
B5: TqsA P237A (natural protein, E. coli K-12, UniProt P0AFS5 1-344, looked up)
chain: B1 chain with P237A
B6: TqsA N238L (natural protein, E. coli K-12, UniProt P0AFS5 1-344, looked up)
chain: B1 chain with N238L
B7: TqsA E280Q (natural protein, E. coli K-12, UniProt P0AFS5 1-344, looked up)
chain: B1 chain with E280Q
B8: TqsA R61L (natural protein, E. coli K-12, UniProt P0AFS5 1-344, looked up)
chain: B1 chain with R61L
B9: TqsA E164Q (natural protein, E. coli K-12, UniProt P0AFS5 1-344, looked up)
chain: B1 chain with E164Q
B10: TqsA N234L (natural protein, E. coli K-12, UniProt P0AFS5 1-344, looked up)
chain: B1 chain with N234L
B11: PerM from Escherichia coli (natural protein, E. coli K-12, UniProt P0AFI9 1-353, looked up)
chain: MLEMLMQWYRRRFSDPEAIALLVILVAGFGIIFFFSGLLAPLLVAIVLAYLLEWPTVRLQSIGCSRRWATSIVLVVFVGILLLMAFVVLPIAWQQGIYLIRDMPGMLNKLSDFAATLPRRYPALMDAGIIDAMAENMRSRMLTMGDSVVKISLASLVGLLTIAVYLVLVPLMVFFLLKDKEQMLNAVRRVLPRNRGLAGQVWKEMNQQITNYIRGKVLEMIVVGIATWLGFLLFGLNYSLLLAVLVGFSVLIPYIGAFVVTIPVVGVALFQFGAGTEFWSCFAVYLIIQALDGNLLVPVLFSEAVNLHPLVIILSVVIFGGLWGFWGVFFAIPLATLIKAVIHAWPDGQIAQE

Columns and labels:
cryo-EM structure = target: the molecule itself; experiment: cryo-EM structure
[1] = target: the molecule itself; experiment: cryo-EM 2D class averages
SEC + native gel or EMSA = target: the molecule itself; experiment: SEC + native gel or EMSA
native gel or EMSA = target: the molecule itself; experiment: native gel or EMSA

Protein	stoichiometry N (SEC + native gel or EMSA)	further results
B1		stoichiometry N (cryo-EM structure): 5
B2		stoichiometry N (cryo-EM structure): 5
B3		stoichiometry N [1]: 5
B4	5	
B5	5	
B6	5	
B7	5	
B8	5	
B9	5	
B10	5	
B11		stoichiometry N (native gel or EMSA): 2
